# Measured values published in patent publication US20050182242A1, “Global analysis of protein activities using proteome chips” (priority 2001, published 2005).
# B1: MAG1: yeast GST-HisX6 fusion protein on proteome chip (protein, UniProt P22134 1-296, looked up)
# DNA-3-methyladenine …: MKLKREYDELIKADAVKEIAKELGSRPLEVALPEKYIARHEEKFNMACEHILEKDPSLFPILKNNEFTLYLKETQVPNTLEDYFIRLASTILSQQISGQAAESIKARVVSLYGGAFPDYKILFEDFKDPAKCAEIAKCGLSKRKMIYLESLAVYFTEKYKDIEKLFGQKDNDEEVIESLVTNVKGIGPWSAKMFLISGLKRMDVFAPEDLGIARGFSKYLSDKPELEKELMRERKVVKKSKIKHKKYNWKIYDDDIMEKCSETFSPYRSVFMFILWRLASTNTDAMMKAEENFVKS
# modifications: GST-His6 tag
# notes: yeast GST-HisX6 fusion protein on proteome chip
# B2: DTR1: yeast GST-HisX6 fusion protein on proteome chip (protein, UniProt P38125 1-572, looked up)
# Dityrosine transporter 1: MGSEPFQKKNLGLQINSQESGTTRSTFHSLEDLGDDVINESWDQVNQKRANIDHDVFHEHPDSSPSLSAQKAKTKEEEVAVKSSNSQSRDPSPDTQAHIPYTYFSKDQRLIIFGIIIFIGFLGPMSGNIYIPALPLLQREYDVSATTINATVSVFMAVFSVGPLFWGALADFGGRKFLYMVSLSLMLIVNILLAAVPVNIAALFVLRIFQAFASSSVISLGAGTVTDVVPPKHRGKAIAYFMMGPNMGPIIAPIVAGLILMKGNYWRWLFGFTSIMTGIALILVTALLPETLRCIVGNGDPKWGDKKDERENNESPFFEGNKISHRRLFPDIGIRKPVNNDAFFQENFPKPPKAGLTLYWKMIKCPPIIITSVSTALLFSSYYAFSVTFSYYLEHDYRFTMLEIGAAYVCPGVAMLLGSQSGGHLSDYLRSRWIKSHPKKKFPAEFRLLLNLIGILLTICGTIGYGWAIFFHYHFVVLLVFSALTAFGMTWCSNTSMTYLTELFPKRAAGTVAVSSFFRNVGAAISSAIILQLCNAMGIGWCFTGLGLCSSISLIGILYLLIFQRKYTAKEF
# modifications: GST-His6 tag
# notes: as for B1
# B3: URA8: yeast GST-HisX6 fusion protein on proteome chip (protein, UniProt P38627 1-578, looked up)
# CTP synthase 2: MKYVVVSGGVISGIGKGVLASSTGMLLKTLGLKVTSIKIDPYMNIDAGTMSPLEHGECFVLDDGGETDLDLGNYERYLGITLSRDHNITTGKIYSHVISRERRGDYLGKTVQIVPHLTNAIQDWIQRVSKIPVDDTGLEPDVCIIELGGTVGDIESAPFVEALRQFQFEVGRENFALIHVSLVPVIHGEQKTKPTQAAIKDLRSLGLIPDMIACRCSEELNRSTIDKIAMFCHVGPEQVVNVHDVNSTYHVPLLLLKQHMIDYLHSRLKLGEVPLTLEDKERGSQLLTNWENMTKNLDDSDDVVKIALVGKYTNLKDSYLSVTKSLEHASMKCRRQLEILWVEASNLEPETQEVDKNKFHDSWNKLSSADGILVPGGFGTRGIEGMILAAKWARESGVPFLGVCLGLQVAAIEFARNVIGRPNSSSTEFLDETLLAPEDQVVIYMPEIDKEHMGGTMRLGLRPTIFQPNSEWSNIRKLYGEVNEVHERHRHRYEINPKIVNDMESRGFIFVGKDETGQRCEIFELKGHPYYVGTQYHPEYTSKVLEPSRPFWGLVAAASGTLGEVIKDINLSEGNENE
# modifications: GST-His6 tag
# notes: as for B1
# B4: ARG1: yeast GST-HisX6 fusion protein on proteome chip (protein, UniProt P22768 1-420, looked up)
# Argininosuccinate synthase: MSKGKVCLAYSGGLDTSVILAWLLDQGYEVVAFMANVGQEEDFDAAKEKALKIGACKFVCVDCREDFVKDILFPAVQVNAVYEDVYLLGTSLARPVIAKAQIDVAKQEGCFAVSHGCTGKGNDQIRFELSFYALKPDVKCITPWRMPEFFERFAGRKDLLDYAAQKGIPVAQTKAKPWSTDENQAHISYEAGILEDPDTTPPKDMWKLIVDPMDAPDQPQDLTIDFERGLPVKLTYTDNKTSKEVSVTKPLDVFLAASNLARANGVGRIDIVEDRYINLKSRGCYEQAPLTVLRKAHVDLEGLTLDKEVRQLRDSFVTPNYSRLIYNGSYFTPECEYIRSMIQPSQNSVNGTVRVRLYKGNVIILGRSTKTEKLYDPTESSMDELTGFLPTDTTGFIAIQAIRIKKYGESKKTKGEELTL
# modifications: GST-His6 tag
# notes: as for B1
# B5: KSS1: yeast GST-HisX6 fusion protein on proteome chip (protein, UniProt P14681 1-368, looked up)
# Mitogen-activated protein …: MARTITFDIPSQYKLVDLIGEGAYGTVCSAIHKPSGIKVAIKKIQPFSKKLFVTRTIREIKLLRYFHEHENIISILDKVRPVSIDKLNAVYLVEELMETDLQKVINNQNSGFSTLSDDHVQYFTYQILRALKSIHSAQVIHRDIKPSNLLLNSNCDLKVCDFGLARCLASSSDSRETLVGFMTEYVATRWYRAPEIMLTFQEYTTAMDIWSCGCILAEMVSGKPLFPGRDYHHQLWLILEVLGTPSFEDFNQIKSKRAKEYIANLPMRPPLPWETVWSKTDLNPDMIDLLDKMLQFNPDKRISAAEALRHPYLAMYHDPSDEPEYPPLNLDDEFWKLDNKIMRPEEEEEVPIEMLKDMLYDELMKTME
# modifications: GST-His6 tag
# notes: as for B1
# Tests used:
# Details in all cases: liposome binding signal on yeast proteome chip, Cy3-streptavidin detection
# PI(3,4)P2 liposomes = assay: Yeast proteome chip probed with PI(3,4)P2 liposomes
# [1] = tested on: phosphatidylcholine (PC) liposomes; assay: Yeast proteome chip probed with PC liposomes
# How it was run: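 Binding detected by fluorescent streptavidin (Cy3 or Cy5, >30 min in the dark at RT) recognizing biotin-DHPE (1% w/w) in PC liposomes, which carried 5% (w/w) of the named phosphoinositide unless PC-only. Liposomes, made by sonication in TBS, were applied to blocked chips for 1 h at RT, then washed in PBS.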
# PI(3)P liposomes = assay: Yeast proteome chip probed with PI(3)P liposomes
# Excerpt: To identify PI-binding proteins in yeast, liposomes were used as probes because the liposome provides the most relevant physiological condition to assay the interactors. Six types of liposomes were used. Each contains phosphatidylcholine (“PC”) with 1% (w/w) N-(biotinoyl)-1,2-dihexadecanoyl-sn-glycero-3-phosphoethanolamine, triethylammonium salt (biotin DHPE). The biotinylated lipid serves as a label that can be detected by Cy3-streptavidin (21). In addition to PC, the five other liposomes contain either 5% (w/w) PI(3)P, PI(4)P, PI(3,4)P2, PI(4,5)P2, or PI(3,4,5)P3 (FIG. 3A).
# The protein-liposome interaction was assayed as follows. Appropriate amounts of each lipid in chloroform were mixed and dried under nitrogen. The lipid mixture was resuspended in TBS buffer by vortexing. The liposomes were created by sonication. Blocked proteome chips were washed three to five times in PBS buffer, and the extra liquid on the glass surface was removed by tapping the slides vertically on a KIMWIPE™. 200 μl of liposome solution was added to the proteome chip and immediately covered by a hydrophobic plastic cover slip (GRACE BIO-LAB™, USA). After trapped air bubbles were removed, the chip was incubated in a humidity chamber at RT for one hour. To remove the cover slip, the chip was immersed into large volume of PBS buffer (50 ml), so that the slip would float away. The chip was then moved to a second PBS bath (>50 ml) and washed 3×5 min with shaking at RT. After removing extra liquid on the surface of the chip, about 100 μl of Cy3 or Cy5 conjugated streptavidin (PIERCE™, USA; 1:2000 to 1:4000 dilution) was added to the surface and covered by a hydrophobic plastic cover slip (GRACE BIO-LABS™, USA). The chip was incubated for greater than 30 min in the dark at RT. The chip was then washed as described above. To completely remove the liquid on the chip, the chip was spun to dryness at 1500-2000 rpm for 5-10 min at RT.
# • 1. S. Fields, Y. Kohara, D. J. Lockhart, Proc. Natl. Acad. Sci. 96, 8825 (1999); A. Goffeau et al., Science 274, 563 (1996). • 2 P. Ross-Macdonald et al., Nature 402, 413 (1999); J. L., DeRisi, V. R. Iyer, P. O. Brown, Science 278, 680 (1997); E. A. Winzeler et al., Science 285, 901 (1999). P. Uetz et al., Nature 403, 623 (2000); T. Ito et al., Proc. Natl. Acad. Sci. USA. 97, 1143 (2000) • 3 H. Zhu, M. Snyder, Curr. Opin. Chem. Biol. 5, 40 (2001). • 4 M. R. Martzen et al., Science 286, 1153 (1999). • 5 H. Zhu et al., Nat. Genet. 26, 283 (2000). • 6 G. MacBeath, S. L. Schreiber, Science 289, 1760 (2000). • 7 A. Caveman, J. Cell Sci. 113, 3543 (2000). • 8 P. Arenkov et al., Anal. Biochem 278, 123 (2000). • 9 D. A. Mitchell, T. K. Marshall, R. J. Deschenes, Yeast 9, 715 (1993). The expression vector pEGH was created by inserting an RGS-HisX6 epitope tag between the GST gene and the polycloning site of pEG(KG). The yeast ORFs were cloned using the strategy described previously (5), except every step was done in a 96-well format. Plasmid DNAs confirmed by DNA sequencing were reintroduced into both yeast (Y258) and E. coli (DH5a). […] 0.1 mM calcium was present in buffers in all subsequent steps. The chip was washed three times with PBS at RT. Cy3-conjugated streptavidin (Jackson IR, USA) (1:5000 dilution) was added to the chip and incubated for 30 min at RT. After extensive washing, the chip was spun dry and scanned using a microarray scanner; the data was subsequently acquired with the GENEPIX™ array densitometry software (Axon, USA). • 12 S. S. Hook, A. R. Means, Annu. Rev. Pharmacol. Toxicol.41, 471 (2001). • 13 M. S. Cyert, R. Kunisawa, D. Kaim, J. Thorner, Proc. Natl. Acad. Sci. USA 88, 7376 (1991). • 14 D. A. Stirling, K. A. Welch, M. J. Stark, EMBO J. 13, 4329 (1994). • 15 F. Bohl, Kruse, EMBO J. 19, 5514 (2000); E. Bertrand et al., Mol. Cell 2, 437 (1998). • 16 D. C. Winter, E. Y. Choe, R. Li, Proc. Nat. Acad Sci. USA 96, 7288 (1999). • 17 C.
# PI(3,4,5)P3 liposomes = assay: Yeast proteome chip probed with PI(3,4,5)P3 liposomes
# PI(4,5)P2 liposomes = assay: Yeast proteome chip probed with PI(4,5)P2 liposomes
# PI(4)P liposomes = assay: Yeast proteome chip probed with PI(4)P liposomes
Molecule,"PI(3, 4)P2 (PI(3,4)P2 liposomes)",PC [1],PI(3)P (PI(3)P liposomes),"PI(3, 4, 5)P3 (PI(3,4,5)P3 liposomes)","PI(4, 5)P2 (PI(4,5)P2 liposomes)",PI(4)P (PI(4)P liposomes)
B1,−2.20,10.86,6.50,29.02,5.23,21.34
B2,2.83,24.07,23.00,13.72,3.05,−4.79
B3,−2.83,20.25,11.50,42.86,23.95,34.40
B4,1.73,23.77,213.00,−6.08,3.48,−6.31
B5,87.91,16.43,−11.50,0.23,−2.61,10.45
